Laboratory results: patent US20060018918A1

Tests used:
Test in all cases: ELISA on plates coated with the antigen; control serum
[1] = molecular target: native α-lactalbumin
[2] = molecular target: α-lactalbumin stabilized denatured isomer "d"
[3] = molecular target: α-lactalbumin stabilized denatured isomer "a"
[4] = molecular target: α-lactalbumin stabilized denatured isomer "c"

O.D. [1]: 0.06 O.D. | O.D. [2]: 0.05 O.D. | O.D. [3]: 0.06 O.D. | O.D. [4]: 0.056 O.D.
Substance: normal mouse serum (control) (polyclonal serum or antibody)
